Data on nine molecules can be found in patent US20250304667A1 (ALLERGAN, published 2025).

As a reminder, the EC50 (read off the curve) is the concentration giving half of the maximal effect. The low end stands for greater potency, the high end for weaker potency.

Test [1] addresses Soluble C5b-9 (CompTech, A127) (UniProt P01031). Nature of the test: BLI (Octet), antibody amine-coupled to AR2G tips, soluble C5b-9 at 30 ug/ml, 300 s association (Example 8). In general terms: BLI is a label-free optical method that tracks binding on a fibre tip over time.
Test [2] concerns the target insoluble C5b-9 complex deposited on IgM-coated ELISA plates after complement activation of normal human serum (human) (UniProt P01031). Nature of the test: ELISA on C5b-9 deposited on IgM-coated plates from 2% normal human serum, anti-mouse HRP, Abs 450nm (Example 7). In general terms: ELISA stands for enzyme-linked immunosorbent assay.
In test [3] the target is Soluble C5b-9 (CompTech, A127) (UniProt P01031). Kind of test: BLI (Octet), antibody amine-coupled to AR2G tips, soluble C5b-9 at 30 ug/ml, 300 s association (Example 8). This is another data set of the same source.
The target of test [4] is T1, human complement Component 5 (C5) (human, UniProt P01031 19-1676, limits assumed). Kind of test: cell-based or functional assay.
T1 sequence (P01031 19-1676 limits assumed): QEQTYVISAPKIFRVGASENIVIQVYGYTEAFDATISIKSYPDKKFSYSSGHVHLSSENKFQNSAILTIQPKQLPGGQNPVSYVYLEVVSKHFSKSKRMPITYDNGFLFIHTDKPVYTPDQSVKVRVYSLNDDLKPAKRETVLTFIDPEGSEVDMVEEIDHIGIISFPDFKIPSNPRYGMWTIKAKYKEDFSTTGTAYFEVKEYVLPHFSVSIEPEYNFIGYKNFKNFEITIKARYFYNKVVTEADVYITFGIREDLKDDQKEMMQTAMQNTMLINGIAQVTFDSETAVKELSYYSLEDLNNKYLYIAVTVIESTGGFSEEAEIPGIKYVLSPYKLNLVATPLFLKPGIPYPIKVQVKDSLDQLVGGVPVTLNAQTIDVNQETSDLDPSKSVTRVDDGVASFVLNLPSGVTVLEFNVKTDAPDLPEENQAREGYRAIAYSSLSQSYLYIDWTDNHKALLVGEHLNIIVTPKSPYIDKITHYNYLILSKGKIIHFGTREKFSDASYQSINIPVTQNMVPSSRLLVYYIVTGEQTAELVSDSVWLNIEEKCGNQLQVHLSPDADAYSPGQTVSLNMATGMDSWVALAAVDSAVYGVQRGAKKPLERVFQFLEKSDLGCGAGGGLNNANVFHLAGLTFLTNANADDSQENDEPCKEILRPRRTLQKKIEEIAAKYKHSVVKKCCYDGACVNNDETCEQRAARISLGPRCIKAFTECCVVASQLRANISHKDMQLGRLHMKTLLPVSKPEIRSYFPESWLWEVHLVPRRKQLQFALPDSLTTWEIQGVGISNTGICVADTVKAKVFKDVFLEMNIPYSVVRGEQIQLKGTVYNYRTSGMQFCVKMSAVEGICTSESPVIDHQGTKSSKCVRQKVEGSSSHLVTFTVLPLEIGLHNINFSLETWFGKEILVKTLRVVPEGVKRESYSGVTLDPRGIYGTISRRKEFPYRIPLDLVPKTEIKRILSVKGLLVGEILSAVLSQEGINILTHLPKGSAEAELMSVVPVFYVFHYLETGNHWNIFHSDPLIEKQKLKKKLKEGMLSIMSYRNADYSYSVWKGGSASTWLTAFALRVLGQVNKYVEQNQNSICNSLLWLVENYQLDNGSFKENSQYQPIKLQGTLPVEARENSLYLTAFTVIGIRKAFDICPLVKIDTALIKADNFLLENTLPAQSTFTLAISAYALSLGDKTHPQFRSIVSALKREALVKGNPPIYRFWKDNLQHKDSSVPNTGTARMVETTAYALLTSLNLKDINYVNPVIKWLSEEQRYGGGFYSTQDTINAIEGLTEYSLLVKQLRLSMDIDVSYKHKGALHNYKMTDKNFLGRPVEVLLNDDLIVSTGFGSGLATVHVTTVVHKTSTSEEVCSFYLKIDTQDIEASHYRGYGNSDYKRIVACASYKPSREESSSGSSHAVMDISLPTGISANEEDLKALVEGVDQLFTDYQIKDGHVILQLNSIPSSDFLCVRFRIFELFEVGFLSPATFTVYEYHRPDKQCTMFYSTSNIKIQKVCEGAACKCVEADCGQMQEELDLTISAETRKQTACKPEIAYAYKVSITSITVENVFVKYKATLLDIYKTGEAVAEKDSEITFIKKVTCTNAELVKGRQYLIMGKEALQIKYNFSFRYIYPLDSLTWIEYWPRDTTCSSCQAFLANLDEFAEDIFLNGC
In test [5] the target is T1, human complement Component 5 (C5). Kind of test: cell-based or functional assay. This is another data set of the same source.
Test [6] has the same target. Kind of test: cell-based or functional assay. This is another data set of the same source.
For test [7] the target is unchanged. Kind of test: cell-based or functional assay. The source holds these as a separate data set.

Substitutions are numbered along the chain they refer to. Where two headings read alike, the source gives them in different places.

With “anti-C5b-9 mouse monoclonal antibody (Quidel A239)”, the values for the Displacement @ 300s. in test [1] and in test [3] were 0.86 nm and 0.67 nm, respectively. This molecule showed an EC50 (read off the curve) in test [2] of 0.04 µg/mL.

B1: H1L3-IgG (antibody, V domains shown)
VH: QVQLVQSGAEVKKPGASVKVSCKASGYTFTDEYMNWVRQAPGQSLEWMGYINPNNGGADYNQKFQGRVTMTVDQSISTAYMELSRLRSDDTAVYFCARLGYSNPYFDFWGQGTLVTVSS
VL: DIVLTQSPSFLSASVGDRVTITCQASQDVNTAVAWYLQKPGKSPKLLIYWASTRHTGVPARFTGSGSGTDYTLTISSLQPEDFAVYFCQQHHVSPWTFGGGTKVEIK
In the case of B1, the “IC50 (read off the curve), % Inhibition” value in test [4] is roughly 3 µg/mL. The “IC50 (read off the curve), OD (450nM)” value in test [5] is roughly 0.5 µg/mL.

B2: H3L3-IgG (antibody, V domains shown)
VH: B1 VH with Q62P, K63S, F64L, Q65K, G66S, M70I, T71S
VL: B1 VL
In the case of B2, the “IC50 (read off the curve), OD (450nM)” value in test [5] was roughly 0.8 µg/mL.

B3: H1L4-IgG (antibody, V domains shown)
VH: B1 VH
VL: B1 VL with S9A, F10T, A13L, V15P, D17E, V19A, I21L, T22S, Q24R, L37Q
B3: the “IC50 (read off the curve), % Inhibition” value in test [4] is roughly 3 µg/mL. In addition, the “IC50 (read off the curve), OD (450nM)” value in test [5] is roughly 0.5 µg/mL.

B4: H3L3-Fab (Fab, V domains shown)
VH: B1 VH with Q62P, K63S, F64L, Q65K, G66S, M70I, T71S
VL: B1 VL
Regarding B4, the “IC50 (read off the curve), OD (450nM)” value in test [6] was roughly 0.5 µg/mL.

B5: H5L3-Fab (Fab, V domains shown)
VH: B1 VH with V5K, Q43K
VL: B1 VL
Turning to B5, the “IC50 (read off the curve), % Inhibition” value in test [7] is roughly 2 µg/mL. For the same molecule, the “IC50 (read off the curve), OD (450nM)” value in test [6] was roughly 0.4 µg/mL.

B6: H1L4-Fab (Fab, V domains shown)
VH: B1 VH
VL: B1 VL with S9A, F10T, A13L, V15P, D17E, V19A, I21L, T22S, Q24R, L37Q
Consider B6, for which the “IC50 (read off the curve), % Inhibition” value in test [7] is roughly 2 µg/mL. In addition, the “IC50 (read off the curve), OD (450nM)” value in test [6] was roughly 0.4 µg/mL.

B7: H5L4-IgG (antibody, V domains shown)
VH: B1 VH with V5K, Q43K
VL: B1 VL with S9A, F10T, A13L, V15P, D17E, V19A, I21L, T22S, Q24R, L37Q
In the case of B7, the “IC50 (read off the curve), % Inhibition” value in test [4] was roughly 3 µg/mL. Also, the “IC50 (read off the curve), OD (450nM)” value in test [5] is roughly 0.5 µg/mL.

B8: H5L4-Fab (Fab, V domains shown)
VH: B1 VH with V5K, Q43K
VL: B1 VL with S9A, F10T, A13L, V15P, D17E, V19A, I21L, T22S, Q24R, L37Q
In the case of B8, the “IC50 (read off the curve), % Inhibition” value in test [7] was roughly 2 µg/mL. In test [6], the “IC50 (read off the curve), OD (450nM)” value is roughly 0.4 µg/mL.
